Data from article doi:10.1101/2025.06.27.661840 (bioRxiv, 2025).
Like-named read-outs stand apart in the source and are kept apart here.

Assays:
Assay in all cases: cryo-EM structure
[1] = molecular target: large tegument protein VP1/2 (ORF22) (Varicella-zoster virus (parental Oka strain, recombinant pOka-TK-RFP)) (UniProt P09278)
cryo-EM structure [2] = molecular target: the molecule itself
cryo-EM structure [3] = molecular target: the molecule itself; remark: listed apart in the source

Molecule | stoichiometry N (cryo-EM structure [2]) | also measured
large tegument protein VP1/2 (ORF22), P09278 1-2763 |  | stoichiometry N [1]: 2
capsid vertex-specific component 2 (CVC2; ORF34) (natural protein, UniProt P09287 1-579, looked up) MTARYGFGSISFPNKCGIFLSTTKNFIAPNFPIHYWTAPAFELRGRMNPDLEKNTLTLKNAAAVAALDNLRGETITLPTEIDRRLKPLEEQLTRMAKVLDSLETAAAEAEEADAQSEECTRTEIIRNESIHPEVQIAKNDAPLQYDTNFQVDFITLVYLGRARGNNSPGIVFGPWYRTLQERLVLDRPVAARGVDCKDGRISRTFMNTTVTCLQSAGRMYVGDRAYSAFECAVLCLYLMYRTSNSVHEPQVSSFGNLIEHLPEYTETFVNYMTTHENKNSYQFCYDRLPRDQFHARGGRYDQGALTSHSVMDALIRLQVLPPAPGQFNPGVNDIIDRNHTAYVDKIQQAAAAYLERAQNVFLMEDQTLLRLTIDTITALLLLRRLLWNGNVYGDKLKNNFQLGLIVSEATGTPTNNVILRGATGFDGKFKSGNNNFQFLCERYIAPLYTLNRTTELTEMFPGLVALCLDAHTQLSRGSLGRTVIDISSGQYQDRLISLIALELEHRRQNVTSLPIAAVVSIHDSVMLQYERGLGMLMHQPRVRAALEESRRLAQFNVNSDYDLLYFVCLGVIPQFASTP | 2 | 
capsid triplex protein 2 (TRX2; ORF41) (natural protein, UniProt P09291 1-316, looked up) MAMPFEIEVLLPGELSPAETSALQKCEGKIITFSTLRHRASLVDIALSSYYINGAPPDTLSLLEAYRMRFAAVITRVIPGKLLAHAIGVGTPTPGLFIQNTSPVDLCNGDYICLLPPVFGSADSIRLDSVGLEIVFPLTIPQTLMREIIAKVVARAVERTAAGAQILPHEVLRGADVICYNGRRYELETNLQHRDGSDAAIRTLVLNLMFSINEGCLLLLALIPTLLVQGAHDGYVNLLIQTANCVRETGQLINIPPMPRIQDGHRRFPIYETISSWISTSSRLGDTLGTRAILRVCVFDGPSTVHPGDRTAVIQV | 2 | 
VZV portal protein (pORF54) (natural protein, UniProt P09302 1-769, looked up) MAEITSLFNNSSGSEEKRIASSVSIDQGLNGSNPNDQYKNMFDIYWNEYAPDIGFCTFPEEDGWMLIHPTTQSMLFRKILAGDFGYTDGQGIYSAVRSTETVIRQVQATVLMNALDATRYEDLAADWEHHIQQCNLHAGALAERYGLCGESEAVRLAHQVFETWRQTLQSSLLEFLRGITGCLYTSGLNGRVGFAKYVDWIACVGIVPVVRKVRSEQNGTPAPLNTYMGQAAELSQMLKVADATLARGAAVVTSLVECMQNVAIMDYDRTRLYYNYNRRLIMAKDDVTGMKGECLVVWPPVVCGEGVVFDSPLQRLSGEVLACYALREHARVCQVLNTAPLRVLIGRRNEDDRSHSTRAVDRIMGENDTTRAGSAASRLVKLIVNLKNMRHVGDITETVRSYLEETGNHILEGSGSVDTSQPGFGKANQSFNGGAMSGTTNVQSAFKTSVVNSINGMLEGYVNNLFKTIEGLKDVNSDLTERLQFKEGELKRLREERVKIKPSKGSHITMAEETRIADLNHEVIDLTGIIGDDAYIANSFQSRYIPPYGDDIKRLSELWKQELVRCFKLHRVNNNQGQEISVSYSNASISLLVAPYFSFILRATRLGFLVTQSEVHRSEEELCQAIFKKARTESYLSQIRILYEMQVRAEVIKRGPRRTPSPSWGLPDPTEDDERIPEPNKINNQYMHVGYKNLSHFMKGHPPERLRVHKVNAADSTLLDKIRANRRRGDGRWDVRNKYTQHFRLQRNDRQLTNTSRRGVGCERRDRRS |  | stoichiometry N (cryo-EM structure [3]): 12
major capsid protein (MCP; ORF40) (natural protein, UniProt P09245 1-1396, looked up) MTTVSCPANVITTTESDRIAGLFNIPAGIIPTGNVLSTIEVCAHRCIFDFFKQIRSDDNSLYSAQFDILLGTYCNTLNFVRFLELGLSVACICTKFPELAYVRDGVIQFEVQQPMIARDGPHPVDQPVHNYMVKRIHKRSLSAAFAIASEALSLLSNTYVDGTEIDSSLRIRAIQQMARNLRTVLDSFERGTADQLLGVLLEKAPPLSLLSPINKFQPEGHLNRVARAALLSDLKRRVCADMFFMTRHAREPRLISAYLSDMVSCTQPSVMVSRITHTNTRGRQVDGVLVTTATLKRQLLQGILQIDDTAADVPVTYGEMVLQGTNLVTALVMGKAVRGMDDVARHLLDITDPNTLNIPSIPPQSNSDSTTAGLPVNARVPADLVIVGDKLVFLEALERRVYQATRVAYPLIGNIDITFIMPMGVFQANSMDRYTRHAGDFSTVSEQDPRQFPPQGIFFYNKDGILTQLTLRDAMGTICHSSLLDVEATLVALRQQHLDRQCYFGVYVAEGTEDTLDVQMGRFMETWADMMPHHPHWVNEHLTILQFIAPSNPRLRFELNPAFDFFVAPGDVDLPGPQRPPEAMPTVNATLRIINGNIPVPLCPISFRDCRGTQLGLGRHTMTPATIKAVKDTFEDRAYPTIFYMLEAVIHGNERNFCALLRLLTQCIRGYWEQSHRVAFVNNFHMLMYITTYLGNGELPEVCINIYRDLLQHVRALRQTITDFTIQGEGHNGETSEALNNILTDDTFIAPILWDCDALIYRDEAARDRLPAIRVSGRNGYQALHFVDMAGHNFQRRDNVLIHGRPVRGDTGQGIPITPHHDREWGILSKIYYYIVIPAFSRGSCCTMGVRYDRLYPALQAVIVPEIPADEEAPTTPEDPRHPLHAHQLVPNSLNVYFHNAHLTVDGDALLTLQELMGDMAERTTAILVSSAPDAGAATATTRNMRIYDGALYHGLIMMAYQAYDETIATGTFFYPVPVNPLFACPEHLASLRGMTNARRVLAKMVPPIPPFLGANHHATIRQPVAYHVTHSKSDFNTLTYSLLGGYFKFTPISLTHQLRTGFHPGIAFTVVRQDRFATEQLLYAERASESYFVGQIQVHHHDAIGGVNFTLTQPRAHVDLGVGYTAVCATAALRCPLTDMGNTAQNLFFSRGGVPMLHDNVTESLRRITASGGRLNPTEPLPIFGGLRPATSAGIARGQASVCEFVAMPVSTDLQYFRTACNPRGRASGMLYMGDRDADIEAIMFDHTQSDVAYTDRATLNPWASQKHSYGDRLYNGTYNLTGASPIYSPCFKFFTPAEVNTNCNTLDRLLMEAKAVASQSSTDTEYQFKRPPGSTEMTQDPCGLFQEAYPPLCSSDAAMLRTAHAGETGADEVHLAQYLIRDASPLRGCLPLPR | 6 | 
